Experimental data taken from PMC2570039 (Molecular cell, 2008).

How the values were obtained:
[1] = target: FtsK50C (50 amino acids from FtsKN fused to FtsKC) (E. coli); test: […]
[2] = target: FtsK50C (50 amino acids from FtsKN fused to FtsKC) (E. coli); test: SEC
crystal structure = target: the molecule itself; test: crystal structure

Molecule | stoichiometry N [1] | stoichiometry N [2] | binding result (crystal structure)
FtsK50C (50 amino acids from FtsKN fused to FtsKC) (domain or fragment) | 6 | 6 | 
Seleno-methionine-substituted Pseudomonas aeruginosa FtsK γ-domain (GGS-742-811) (domain or fragment, seleno-methionine-substituted) GGSEGSEDDPLYDEAVRFVTESRRASISAVQRKLKIGYNRAARMIEAMEMAGVVTPMNTNGSREVIAPAPVRD |  |  | binds
